From patent US20250154268A1 (NONA BIOSCIENCES SUZHOU, published 2025)
Where two headings read alike, the source gives them in different places.

How the values were obtained:
human CD25 [1] = target: T1, human CD25 (human, UniProt P01589 22-272); experiment: flow cytometry, SU-DHL-1 cells
T1 construct: whole, on cells; Always presented on cells; also called huCD25; IL2Rα
T1 sequence (looked up): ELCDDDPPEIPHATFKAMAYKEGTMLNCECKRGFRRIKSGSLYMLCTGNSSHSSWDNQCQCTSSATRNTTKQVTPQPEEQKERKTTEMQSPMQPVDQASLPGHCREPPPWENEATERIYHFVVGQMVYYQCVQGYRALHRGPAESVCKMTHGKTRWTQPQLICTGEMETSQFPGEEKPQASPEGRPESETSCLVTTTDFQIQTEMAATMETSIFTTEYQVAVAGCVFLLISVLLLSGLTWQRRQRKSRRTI
Procedure: (§1) Briefly, the CHOK1-huCD25 cells and HEK293-cynoCD25 cells were digested, the SU-DHL-1 cells, Karpas299 cells, Treg cells and Teff cells were collected, and the cells were resuspended in PBS containing 2% BSA. The cells were adjusted to a cell density of 1×10⁶ cells/mL, respectively. […] The cells were incubated at 4° C. for 1 hour in the dark. After the incubation, the cells were rinsed twice by adding pre-chilled PBS containing 2% BSA at 100 μL/well, and centrifuged at 500 g at 4° C. for 5 minutes, and the supernatant was discarded. […] The cells were washed twice by adding pre-chilled PBS containing 2% BSA at 100 μL/well, and centrifuged at 500 g at 4° C. for 5 minutes, and the supernatant was discarded. Finally, the cells were resuspended in pre-chilled PBS containing 2% BSA at 200 μL/well, and the fluorescence signal values were read using a BD CantoII flow cytometer.

cynomolgus monkey CD25 [2] = target: T2, cynomolgus monkey CD25 (cynomolgus monkey, UniProt H6WS54 22-272); experiment: flow cytometry, HEK293-cynoCD25 cells
T2 construct: whole, on cells; also called cynoCD25
T2 sequence: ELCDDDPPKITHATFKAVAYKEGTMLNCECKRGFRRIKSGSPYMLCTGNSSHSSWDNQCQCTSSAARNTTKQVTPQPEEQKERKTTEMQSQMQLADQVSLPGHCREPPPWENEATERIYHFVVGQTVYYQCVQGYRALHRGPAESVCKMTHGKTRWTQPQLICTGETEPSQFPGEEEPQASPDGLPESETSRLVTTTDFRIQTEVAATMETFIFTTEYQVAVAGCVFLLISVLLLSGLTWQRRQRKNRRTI
Procedure: as §1

cynomolgus monkey CD25 [3] = target: T2, cynomolgus monkey CD25; experiment: flow cytometry, HEK293-cynoCD25 cells; remark: listed apart in the source
Procedure: as §1

human CD25 [4] = target: T1, human CD25; experiment: flow cytometry, Karpas299 cells
Procedure: (§2) This example was intended to study the in-vitro binding activity of H2L2 monoclonal antibodies against human CD25 to human/cynomolgus monkey CD25. […] Briefly, the CHOK1-huCD25 cells and HEK293-cynoCD25 cells were digested, the SU-DHL-1 cells, Karpas299 cells, Treg cells and Teff cells were collected, and the cells were resuspended in PBS containing 2% BSA. The cells were adjusted to a cell density of 1×10⁶ cells/mL, respectively. […] The cells were incubated at 4° C. for 1 hour in the dark. After the incubation, the cells were rinsed twice by adding pre-chilled PBS containing 2% BSA at 100 μL/well, and centrifuged at 500 g at 4° C. for 5 minutes, and the supernatant was discarded. […] The cells were washed twice by adding pre-chilled PBS containing 2% BSA at 100 μL/well, and centrifuged at 500 g at 4° C. for 5 minutes, and the supernatant was discarded. Finally, the cells were resuspended in pre-chilled PBS containing 2% BSA at 200 μL/well, and the fluorescence signal values were read using a BD CantoII flow cytometer.

cynomolgus monkey CD25 [5] = target: T2, cynomolgus monkey CD25; experiment: flow cytometry, HEK293-cynoCD25 cells; remark: listed apart in the source
Procedure: as §2

cynomolgus monkey CD25 [6] = target: T2, cynomolgus monkey CD25; experiment: flow cytometry, HEK293-cynoCD25 cells; remark: listed apart in the source
Procedure: as §1

human CD25 [7] = target: T1, human CD25; experiment: flow cytometry, CHOK1-huCD25 cells
Procedure: as §1

human CD25 [8] = target: T1, human CD25; experiment: flow cytometry, CHOK1-huCD25 cells; remark: listed apart in the source
Procedure: as §2

human CD25 [9] = target: T1, human CD25; experiment: flow cytometry, SU-DHL-1 cells; remark: listed apart in the source
Procedure: as §1

human CD25 [10] = target: T1, human CD25; experiment: flow cytometry, Karpas299 cells; remark: listed apart in the source
Procedure: as §2

human CD25 [11] = target: T1, human CD25; experiment: flow cytometry, SU-DHL-1 cells; remark: listed apart in the source
Procedure: as §1

human CD25 [12] = target: T1, human CD25; experiment: flow cytometry, Karpas299 cells; remark: listed apart in the source
Procedure: as §2

human CD25 [13] = target: T1, human CD25; experiment: flow cytometry, SU-DHL-1 cells; remark: listed apart in the source
Procedure: as §1

cynomolgus monkey CD25 [14] = target: T2, cynomolgus monkey CD25; experiment: flow cytometry, HEK293-cynoCD25 cells; remark: listed apart in the source
Procedure: as §1

human CD25 [15] = target: T1, human CD25; experiment: flow cytometry, Karpas299 cells; remark: listed apart in the source
Procedure: as §1

human CD25 [16] = target: T1, human CD25; experiment: flow cytometry, SU-DHL-1 cells; remark: listed apart in the source
Procedure: as §1

human CD25 [17] = target: T1, human CD25; experiment: flow cytometry, SU-DHL-1 cells; remark: listed apart in the source
Procedure: as §1

human CD25 [18] = target: T1, human CD25; experiment: flow cytometry, SU-DHL-1 cells; remark: listed apart in the source
Procedure: as §1

human CD25 [19] = target: T1, human CD25; experiment: flow cytometry, SU-DHL-1 cells; remark: listed apart in the source
Procedure: as §1

cynomolgus monkey CD25 [20] = target: T2, cynomolgus monkey CD25; experiment: flow cytometry, HEK293-cynoCD25 cells; remark: listed apart in the source
Procedure: as §2

human CD25 [21] = target: T1, human CD25; experiment: flow cytometry, Karpas299 cells; remark: listed apart in the source
Procedure: as §1

human CD25 [22] = target: T1, human CD25; experiment: flow cytometry, SU-DHL-1 cells; remark: listed apart in the source
Procedure: as §1

human CD25 [23] = target: T1, human CD25; experiment: flow cytometry, Karpas299 cells; remark: listed apart in the source
human CD25 [24] = target: T1, human CD25; experiment: flow cytometry, Karpas299 cells; remark: listed apart in the source
Procedure: as §2

human CD25 [25] = target: T1, human CD25; experiment: flow cytometry, Karpas299 cells; remark: listed apart in the source
human CD25 [26] = target: T1, human CD25; experiment: flow cytometry, Karpas299 cells; remark: listed apart in the source

B1: RG6292 (antibody, human IgG1, kappa, V domains shown)
VH: QVQLVQSGAEVKKPGSSVKVSCKASGGTFSSLAISWVRQAPGQGLEWMGGIIPIFGTANYAQKFQGRVTITADESTSTAYMELSSLRSEDTAVYYCARGGSVSGTLVDFDIWGQGTMVTVSS
VL: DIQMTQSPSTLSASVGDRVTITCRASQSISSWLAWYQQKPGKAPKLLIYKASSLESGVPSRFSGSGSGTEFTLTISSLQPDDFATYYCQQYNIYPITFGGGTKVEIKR
notes: also called PR004639; PR004639AF
EC50 (human CD25 [1]): 1.57 nM
Maximum MFI (human CD25 [1]): 28000 MFI
EC50 (cynomolgus monkey CD25 [2]): 20.9 nM
Maximum MFI (cynomolgus monkey CD25 [2]): 89700 MFI
EC50 (cynomolgus monkey CD25 [3]): 40 nM
Maximum MFI (cynomolgus monkey CD25 [3]): 2660 MFI
EC50 (human CD25 [4]): 11.8 nM
EC50 (cynomolgus monkey CD25 [5]): 80.8 nM
EC50 (cynomolgus monkey CD25 [6]): 80.8 nM
Maximum MFI (cynomolgus monkey CD25 [6]): 8590 MFI
EC50 (human CD25 [7]): 40 nM
Maximum MFI (human CD25 [7]): 2660 MFI
EC50 (human CD25 [8]): 45.8 nM
EC50 (human CD25 [9]): 1.29 nM
EC50 (human CD25 [10]): 3.41 nM
EC50 (human CD25 [11]): 1.28 nM
Maximum MFI (human CD25 [11]): 29700 MFI
EC50 (human CD25 [12]): 2.22 nM
EC50 (human CD25 [13]): 0.95 nM
EC50 (cynomolgus monkey CD25 [14]): 4.33 nM
Maximum MFI (cynomolgus monkey CD25 [14]): 125000 MFI
EC50 (human CD25 [15]): 14.3 nM
Maximum MFI (human CD25 [15]): 20900 MFI
EC50 (human CD25 [16]): 1.4 nM
Maximum MFI (human CD25 [16]): 30700 MFI
EC50 (human CD25 [17]): 1.28 nM
EC50 (human CD25 [18]): 1.35 nM
EC50 (human CD25 [19]): 3.87 nM
Maximum MFI (human CD25 [19]): 32900 MFI
EC50 (cynomolgus monkey CD25 [20]): 6.75 nM
EC50 (human CD25 [21]): 30 nM
Maximum MFI (human CD25 [21]): 11800 MFI
EC50 (human CD25 [22]): 3.87 nM
Maximum MFI (human CD25 [22]): 32900 MFI
EC50 (human CD25 [23]): 5 nM
Maximum MFI (human CD25 [23]): 10100 MFI
EC50 (human CD25 [24]): 5 nM
EC50 (human CD25 [25]): 5 nM
Maximum MFI (human CD25 [25]): 9560 MFI
EC50 (human CD25 [26]): 30 nM
Maximum MFI (human CD25 [26]): 11800 MFI
